{
  "source": "paper PMC7515708",
  "about": "“Enhancer RNAs predict enhancer–gene regulatory links and are critical for enhancer function in neuronal systems”",
  "binders": {"B1": {"name": "Fos eRNA1 (150 nt), labeled (ssRNA)", "RNA": "UUCGGCGGAACCCAAUACAUGGAGUCUGGAGGUUAAGAGACUGCCAAGAAGUCAAGCGGAAAGAGAAACAAGAACGGGAAAGGAAGCUUGGCUGUUCUGUGGGCUUUGGGGCUUUGACCUUGUCUGGAAGCCAUAAACUCGGCUCGAGGG"}, "B2": {"name": "Fos eRNA1 (150 nt), unlabeled competitor (ssRNA)", "RNA": "B1 RNA"}, "B3": {"name": "ctrl RNA (150), labeled (ssRNA)", "RNA": "GCUGCCAUCUGUCACCUAACAGGAGGAGGCUGAGAGUUACUUGUCUGGGAGACUUGCUGAGAGACAAGGACAGGCCCUGGAUCUCCUCAAUGUAGCCUGUCCGGGACUAUUCAGUUCUAUGAGGGACUUCUUAGAGAAACUAGGGUGCCC"}, "B4": {"name": "Fos eRNA3 (150), labeled (ssRNA)", "RNA": "CCUUACUAGCCGCUGAGCGUGCAGGCGUUGGGGACACUUUACACCGGGUUCAGAUUCCAGGGCCGCCACUCCAGGUGGAUAAUGAAGUACAGGCCAUAGUCUUUCUGUGCCCUAGACUGUCAUCUAUAACGUAAGCAUACUAGCAAGACC"}},
  "key": {"CBP bromodomain": {"target": "CBP bromodomain (UniProt Q92793 1081-1197)", "sequence (Q92793 1081-1197)": "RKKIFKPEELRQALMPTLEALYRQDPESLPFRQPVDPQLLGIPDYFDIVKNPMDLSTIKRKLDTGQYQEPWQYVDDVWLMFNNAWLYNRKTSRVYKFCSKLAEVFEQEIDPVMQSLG", "test": "EMSA; same concentrations as HAT (up to 0.6 uM); no appreciable binding; 20 mM HEPES, 40 mM KCl, 1 mM EDTA, 0.2 mM DTT, 0.1 mg/ml BSA, 0.1% Tween-20, 20% glycerol, 0.1 mg/ml yeast tRNA; pH not stated; 1 h at 37 C; 1% agarose, 0.5x TBE", "details": "protein: commercial; tags: GST; label: fluorescein-12-UTP, internal"}, "CBP HAT domain [1]": {"target": "T1, CBP HAT domain (UniProt Q92793 1319-1710)", "T1 sequence (Q92793 1319-1710)": "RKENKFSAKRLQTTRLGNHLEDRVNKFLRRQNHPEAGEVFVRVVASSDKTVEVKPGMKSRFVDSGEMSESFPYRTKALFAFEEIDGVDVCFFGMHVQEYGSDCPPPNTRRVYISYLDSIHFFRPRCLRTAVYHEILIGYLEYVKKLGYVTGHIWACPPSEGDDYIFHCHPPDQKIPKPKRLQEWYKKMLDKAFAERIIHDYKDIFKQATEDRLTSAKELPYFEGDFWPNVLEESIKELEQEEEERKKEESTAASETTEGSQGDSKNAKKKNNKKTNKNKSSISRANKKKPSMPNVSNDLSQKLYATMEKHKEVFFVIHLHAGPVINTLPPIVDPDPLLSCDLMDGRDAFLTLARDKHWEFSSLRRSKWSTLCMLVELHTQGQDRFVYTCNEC", "test": "EMSA; 20 nM RNA, 0.05-0.6 uM protein, yeast tRNA 0.1 mg/ml; almost complete binding at 0.6 uM; 20 mM HEPES, 40 mM KCl, 1 mM EDTA, 0.2 mM DTT, 0.1 mg/ml BSA, 0.1% Tween-20, 20% glycerol, 0.1 mg/ml yeast tRNA; pH not stated; 1 h at 37 C; 1% agarose, 0.5x TBE", "details": "protein: commercial; tags: GST; label: fluorescein-12-UTP, internal"}, "CBP HAT domain [2]": {"target": "T1, CBP HAT domain", "test": "competition; against labeled eRNA1; competitor up to 5 uM; 20 mM HEPES, 40 mM KCl, 1 mM EDTA, 0.2 mM DTT, 0.1 mg/ml BSA, 0.1% Tween-20, 20% glycerol, 0.1 mg/ml yeast tRNA; pH not stated; 1 h at 37 C; 1% agarose, 0.5x TBE", "details": "protein: commercial; tags: GST"}, "CBP HAT domain [3]": {"target": "T1, CBP HAT domain", "test": "EMSA; 20 nM RNA, 0.05-0.6 uM protein, yeast tRNA 0.1 mg/ml; 20 mM HEPES, 40 mM KCl, 1 mM EDTA, 0.2 mM DTT, 0.1 mg/ml BSA, 0.1% Tween-20, 20% glycerol, 0.1 mg/ml yeast tRNA; pH not stated; 1 h at 37 C; 1% agarose, 0.5x TBE", "details": "protein: commercial; tags: GST; label: fluorescein-12-UTP, internal"}},
  "data": [
    {"binder": "B1", "values": [
      {"measurement": "binding result", "setting": "CBP bromodomain", "value": "no binding"},
      {"measurement": "binding result", "setting": "CBP HAT domain [1]", "value": "binds"}
    ]},
    {"binder": "B2", "values": [
      {"measurement": "binding result", "setting": "CBP HAT domain [2]", "value": "binds"}
    ]},
    {"binder": "B3", "values": [
      {"measurement": "binding result", "setting": "CBP HAT domain [3]", "value": "binds"}
    ]},
    {"binder": "B4", "values": [
      {"measurement": "binding result", "setting": "CBP HAT domain [3]", "value": "binds"}
    ]}
  ]
}
